B1: HDV Ribozyme (parent)
chain: GGCCGGCAUGGUCCCAGCCUCCUCGCUGGCGCCGGCUGGGCAACAUUCCGAGGGGACCGUCCCCUCGGUAAUGGCGAAUGGGACCCA

Variants of: B1
Assay: self-cleavage, relative activity (ratio to wild type); higher = more cleavage; co-transcriptional

Row | Variant | self-cleavage
1 | GGCCGGCAUUGUCCCAGCCUCCUCGCUGGCGCCGGCUGGGCAACAUUCCGAGGGGACCGUCCCCUCGGUAAUGGUGAAUGGGACCCA [G10U C75U] | 0.0678
2 | GGCCGGCAUGAUCCCAGCCUCCUCGCUGGCGCUGGCUGGGCAACAUUCCGAGGGGACCGUCCCCUCGGUAAUGGCGAAUGGGACCCA [G11A C33U] | 0.271
3 | GGCCGGCAUUGUCCCAGCCUCCUCGCUGGCGCCGGCUGGGCAACAUUCCGAGGGGACCGUCCCCCCGGUAAUGGCGAAUGGGACCCA [G10U U65C] | 0.831
4 | GGCCGGCAUUGUCCCAGCCCCCUCGCUGGCGCCGGCUGGGCAACAUUCCGAGGGGACCGUCCCCUCGGUAAUGGCGAAUGGGACCCA [G10U U20C] | 0
5 | GGCCGGCAUUGUCCCAGCCUCCUCGCUGGCGCCGGCUGGGCAACAUUCCGAGGGGAGCGUCCCCUCGGUAAUGGCGAAUGGGACCCA [G10U C57G] | 0.587
6 | GGCCGGCAUUGUCCCAGCCUCCUCGCUGGCGCCGGCUGGGCAACAUUCCGAGGGCACCGUCCCCUCGGUAAUGGCGAAUGGGACCCA [G10U G55C] | 0.831
7 | GGCCGGCAUUGUCCCAGCCUCCUCGCUGGCGCCGGCUGGGCAACAUUCCGAGGGGACCGUCCCCUAGGUAAUGGCGAAUGGGACCCA [G10U C66A] | 0.895
8 | GGCCGGCAUGAUCACAGCCUCCUCGCUGGCGCCGGCUGGGCAACAUUCCGAGGGGACCGUCCCCUCGGUAAUGGCGAAUGGGACCCA [G11A C14A] | 0.148
9 | GGCCGGCAUGAUCUCAGCCUCCUCGCUGGCGCCGGCUGGGCAACAUUCCGAGGGGACCGUCCCCUCGGUAAUGGCGAAUGGGACCCA [G11A C14U] | 0.277
10 | GGCCGGCAUUGUCCCAGCCUCCUCGCUGGCGCCGGCUGGGCAACAUUCCGAGGGGACCGUCCCCUCGGUAAUGCCGAAUGGGACCCA [G10U G74C] | 0.138
11 | GGCCGGCAUUGUCCCAGCCUCCUCGCUGGCGCCGGCUGGGCAACAUUCCGAGGGGACCGUCCCCUCGGUAAUGGCCAAUGGGACCCA [G10U G76C] | 0.963
12 | GGCCGGCAUUGUCCCAGCCUCCUCGCUGGCGCCGGCUGGGCAACAUUCCGAGGGGACCGUCCCCUCGGUAAUGGCAAAUGGGACCCA [G10U G76A] | 0.652
13 | GGCCGGCAUUGUCCCAGCCUCCUCGCUGGCGCCGGCUGGGCAACAUUACGAGGGGACCGUCCCCUCGGUAAUGGCGAAUGGGACCCA [G10U C48A] | 0.698
14 | GGCCGGCAUGAUGCCAGCCUCCUCGCUGGCGCCGGCUGGGCAACAUUCCGAGGGGACCGUCCCCUCGGUAAUGGCGAAUGGGACCCA [G11A C13G] | 0.032
15 | GGCCGGCAUGAUUCCAGCCUCCUCGCUGGCGCCGGCUGGGCAACAUUCCGAGGGGACCGUCCCCUCGGUAAUGGCGAAUGGGACCCA [G11A C13U] | 0.0297
16 | GGCCGGCAUUGUCCCAGCCUCCUCGCUGGCUCCGGCUGGGCAACAUUCCGAGGGGACCGUCCCCUCGGUAAUGGCGAAUGGGACCCA [G10U G31U] | 0.181

Row | Variant | self-cleavage
17 | GGCCGGCAUUGUCCCAGCCUCCUCGCUGGCGCCGGCUGGGCAACAUUCCGAGGGGACCGUCCCCUCGGUAAUGGCGAAAGGGACCCA [G10U U79A] | 0.352
18 | GGCCGGCAUGAUCCCAGCCUCCUCGCUGGCGCCGGCUGGGCAACAUUCCGAGGGGACCGUCCCCUCGGUAAUGGCGCAUGGGACCCA [G11A A77C] | 0.0898
19 | GGCCGGCAUGAUCCCAGCCUCCUCGCUGGCGCCGGCUGGGCAACAUUCCGAGGGGACCGUCCCCUCGGUAAUGGCGGAUGGGACCCA [G11A A77G] | 0.208
20 | GGCCGGCAUUGUCCCAGCCUCCUCGCUGGCGCCGGCUGGGCAACAUUCCGAGGGGACCGUCCCCUCGGAAAUGGCGAAUGGGACCCA [G10U U69A] | 0.813
21 | GGCCGGCAUUGUCCCAGCCUCCUCACUGGCGCCGGCUGGGCAACAUUCCGAGGGGACCGUCCCCUCGGUAAUGGCGAAUGGGACCCA [G10U G25A] | 0.114
22 | GGCCGGCAUUGUCCCAGCCUCCUCGCUGGCGCCGGCUGGGCAACAUUCCGACGGGACCGUCCCCUCGGUAAUGGCGAAUGGGACCCA [G10U G52C] | 0.639
23 | GGCCGGCAUUGUCCCAGCCUCCUCGCUGGCGCCGGCUGGGCAACAUUCCGAGGGGACCGUCCCCUCGGUAAUGGCGAAUGGGAACCA [G10U C84A] | 0.519
24 | GGCCGGCAUUGUCCCAGCCUCCUCGCUGUCGCCGGCUGGGCAACAUUCCGAGGGGACCGUCCCCUCGGUAAUGGCGAAUGGGACCCA [G10U G29U] | 0.0475
25 | GGCCGGCAUUGUCCCAGCCUCCUCGCUGGCGCCGGCUGGGCAACAUGCCGAGGGGACCGUCCCCUCGGUAAUGGCGAAUGGGACCCA [G10U U47G] | 0.63
26 | GGCCGGCAUGAUCCCAGCCUCCUCGCUGGCGCCGGAUGGGCAACAUUCCGAGGGGACCGUCCCCUCGGUAAUGGCGAAUGGGACCCA [G11A C36A] | 0.0446
27 | GGCCGGCAUGAUCCCAGCCUCCUCGCUGGCGCCGGGUGGGCAACAUUCCGAGGGGACCGUCCCCUCGGUAAUGGCGAAUGGGACCCA [G11A C36G] | 0.151
28 | GGCCGGCAUUGUCCCAGCCUCCUCGCUGGCGCCGGCUGAGCAACAUUCCGAGGGGACCGUCCCCUCGGUAAUGGCGAAUGGGACCCA [G10U G39A] | 0.199
29 | GGCCGGCAUUGUCCCAGCCUCCUCGCUGGCGCCGGCUGUGCAACAUUCCGAGGGGACCGUCCCCUCGGUAAUGGCGAAUGGGACCCA [G10U G39U] | 0.346
30 | GGCCGGCAUGAUCCCAGCCUCCUCGCUGGCGCCGGCUGGGCAACAUUCCGAGGGGACCGUCCCCUCGGUAAUGGCGACUGGGACCCA [G11A A78C] | 0.127
31 | GGCCGGCAUGAUCCCAGCCUCCUCGCUGGCGCCGGCUGGGCAACAUUCCGAGGGGACCGUCCCCUCGGUAAUGGCGAUUGGGACCCA [G11A A78U] | 0.111
32 | GGCCGGCAUUGUCCCAGCCUCCUCGCCGGCGCCGGCUGGGCAACAUUCCGAGGGGACCGUCCCCUCGGUAAUGGCGAAUGGGACCCA [G10U U27C] | 0.554
